Experimental data: publication PMC3562429 (Developmental cell, 2013)

Target: T1, Aim3 (budding yeast, UniProt P38266 1-947)
T1 sequence (looked up): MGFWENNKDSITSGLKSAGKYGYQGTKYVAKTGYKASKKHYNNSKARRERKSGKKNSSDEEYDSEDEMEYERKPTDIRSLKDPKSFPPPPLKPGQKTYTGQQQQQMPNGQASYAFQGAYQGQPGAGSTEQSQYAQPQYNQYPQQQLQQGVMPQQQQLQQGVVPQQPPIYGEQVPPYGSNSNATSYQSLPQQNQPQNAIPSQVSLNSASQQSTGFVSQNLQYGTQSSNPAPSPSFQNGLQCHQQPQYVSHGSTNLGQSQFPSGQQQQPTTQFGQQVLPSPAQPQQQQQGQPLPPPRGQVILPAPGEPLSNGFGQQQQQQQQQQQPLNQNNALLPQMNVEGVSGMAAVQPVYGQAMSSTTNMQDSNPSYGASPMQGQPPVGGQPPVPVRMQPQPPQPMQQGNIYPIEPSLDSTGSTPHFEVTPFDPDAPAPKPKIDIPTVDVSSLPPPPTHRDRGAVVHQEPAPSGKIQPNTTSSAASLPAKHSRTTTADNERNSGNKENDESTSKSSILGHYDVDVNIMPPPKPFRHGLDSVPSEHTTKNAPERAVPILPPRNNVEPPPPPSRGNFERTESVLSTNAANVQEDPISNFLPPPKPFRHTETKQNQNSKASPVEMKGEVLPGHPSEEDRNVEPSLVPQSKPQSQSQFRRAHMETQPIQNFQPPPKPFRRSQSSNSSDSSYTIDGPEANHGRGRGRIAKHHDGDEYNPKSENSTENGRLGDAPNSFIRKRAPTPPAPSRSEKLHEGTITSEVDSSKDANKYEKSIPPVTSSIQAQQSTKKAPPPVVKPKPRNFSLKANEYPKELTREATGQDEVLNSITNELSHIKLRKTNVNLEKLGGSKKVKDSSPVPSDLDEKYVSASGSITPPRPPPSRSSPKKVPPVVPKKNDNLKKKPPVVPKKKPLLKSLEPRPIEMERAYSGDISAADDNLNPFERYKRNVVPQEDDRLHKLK
Test: pull-down

B1: Abp1-9myc (Actin binding protein 1) (natural protein, budding yeast, UniProt P15891 1-592, looked up)
chain: MALEPIDYTTHSREIDAEYLKIVRGSDPDTTWLIISPNAKKEYEPESTGSSFHDFLQLFDETKVQYGLARVSPPGSDVEKIIIIGWCPDSAPLKTRASFAANFAAVANNLFKGYHVQVTARDEDDLDENELLMKISNAAGARYSIQTSSKQQGKASTPPVKKSFTPSKSPAPVSKKEPVKTPSPAPAAKISSRVNDNNDDDDWNEPELKERDFDQAPLKPNQSSYKPIGKIDLQKVIAEEKAKEDPRLVQKPTAAGSKIDPSSDIANLKNESKLKRDSEFNSFLGTTKPPSMTESSLKNDDDKVIKGFRNEKSPAQLWAERKAKQNSGNAETKAEAPKPEVPEDEPEGEPDVKDLKSKFEGLAASEKEEEEMENKFAPPPKKSEPTIISPKPFSKPQEPVKAEEAEQPKTDYKKIGNPLPGMHIEADNEEEPEENDDDWDDDEDEAAQPPLPSRNVASGAPVQKEEPEQEEIAPSLPSRNSIPAPKQEEAPEQAPEEEIEEEAEEAAPQLPSRSSAAPPPPPRRATPEKKPKENPWATAEYDYDAAEDNELTFVENDKIINIEFVDDDWWLGELEKDGSKGLFPSNYVSLGN
binding result: binds
